Entries after “also recorded” stand apart in the source; their conditions may differ.
How the values were obtained:
[1] = tested on: PC3 prostate cancer cells; test: PC3 prostate cancer cell recruitment to PEG hydrogel cancer cell traps; format: in vivo, mouse; conditions: C57 mice, released from subcutaneous PEG hydrogel, 24 hours after intravenous transplantation, fluorescence intensity, vs saline
Text: Using near-infrared labeled PC3 prostate cell transplanted mice, the effect of hydrogel cancer cell traps in reducing cancer metastasis was studied. Specifically, PEG hydrogel was fabricated as following. Carboxyl-terminal PEG derivative polymer was synthesized using free radical polymerization. In brief, 4,4′-azobis(4-cyanovaleric acid) and various weight ratios (10:1-20:1) of 2-(2-Methoxyethoxy)ethyl methacrylate (MEO2MA) and oligo(ethylene glycol)monomethyl ether methacrylates (Mw:475;OEOMA475) were dissolved in ethanol to form a 20 wt % monomer solution. The solution was purged with nitrogen gas for 10 min and incubated at 60° C. for 6 h. The solvent was then removed with evaporation under vacuum and the crude polymers are re-dissolved in DI water and were purified with exhaust dialysis against DI water and then lyophilized. The low critical solution temperature (LCST) of the carboxyl-terminal PEG derivative polymers was determined using an UV-vis spectrometer. By changing the molar ratios of MEO2MA to OEOMA475, the carboxyl-terminal PEG derivative polymer with LCST of 32° C. was achieved and the polymer used to fabricate thermogelling bioactive hydrogel scaffold as described below. Incorporation of chemokines/cytokines to PEG hydrogel was achieved by physical adsorption. PEG hydrogel was mixed with vascular endothelial growth factor (VEGF) (100 ng/ml), erythropoietin (EPO) (100 international unit/ml), stromal derived factor-1α (SDF-1α) or saline (as control). The hydrogel samples were then injected into the subcutaneous cavity (under the skin) of C57 mice via 20 gauge needles. The mice were then transplanted intravenously with PC3 prostate cancer cells (5×10^6/mouse).

[2] = tested on: CD11b+ inflammatory cells; test: Murine cancer metastasis model: inflammatory cell recruitment to subcutaneous microsphere implants; format: in vivo, C57BL/6 mice; conditions: vs control
Experimental: The animal experiments were carried out using C57BL/6 mice (6-10 week old) from Jackson Laboratory (Bar Harbor, Me., USA). This murine cancer metastasis model comprised of two consecutive steps. First, biomaterial microspheres (75 mg/0.5 ml saline/mouse) were implanted in the dorsal subcutaneous space of mice to elicit localized subcutaneous inflammation. Second, after microsphere implantation for different periods of time (6 hours-14 days), cancer cells (5×10^6 cells/0.2 ml/mouse) were transplanted in the peritoneal cavity. 24 h after tumor cell trans-plantation the animals were sacrificed. The vital organs, lymph nodes, the microsphere implants and surrounding tissues were then recovered and frozen in OCT embedding media (Polysciences Inc., Warrington, Pa., USA) at -80° C. The peripheral blood was also collected for further analysis. Eight μm thick sections were sliced using a Leica Cryostat (CM1850) and placed on poly-L-lysine coated slides for histological and immunohistochemical analyses. […] FITC-conjugated antibody incubated tissue section was ready for image analysis. […] All tissue section images were taken using a Leica fluorescence microscope (Leica Microsystems GmbH, Wetzlar, Germany) equipped with a Retiga-EXi CCD camera (QImaging, Surrey, BC, Canada) as described earlier. […]

[3] = tested on: B16F10 melanoma cells; test: Murine cancer metastasis model: melanoma cell migration to subcutaneous microsphere implants and lymph nodes; format: in vivo, C57BL/6 mice; conditions: B16F10 cells intraperitoneal
Experimental: The animal experiments were carried out using C57BL/6 mice (6-10 week old) from Jackson Laboratory (Bar Harbor, Me., USA). This murine cancer metastasis model comprised of two consecutive steps. First, biomaterial microspheres (75 mg/0.5 ml saline/mouse) were implanted in the dorsal subcutaneous space of mice to elicit localized subcutaneous inflammation. Second, after microsphere implantation for different periods of time (6 hours-14 days), cancer cells (5×10^6 cells/0.2 ml/mouse) were transplanted in the peritoneal cavity. 24 h after tumor cell trans-plantation the animals were sacrificed. The vital organs, lymph nodes, the microsphere implants and surrounding tissues were then recovered and frozen in OCT embedding media (Polysciences Inc., Warrington, Pa., USA) at −80° C. The peripheral blood was also collected for further analysis. […]
Immunohistological analyses for CD11b+ inflammatory cells and HMB45+ melanoma cells were carried out to assess the degree of implant-mediated inflammatory responses and melanoma cell migration, respectively. […] FITC-conjugated antibody incubated tissue section was ready for image analysis. […] All tissue section images were taken using a Leica fluorescence microscope (Leica Microsystems GmbH, Wetzlar, Germany) equipped with a Retiga-EXi CCD camera (QImaging, Surrey, BC, Canada) as described earlier. […]

[4] = Release rates of chemokines/growth factors from cancer cell traps; conditions: for Release rates: optimal release rate from cancer cell traps; for Duration: release from cancer cell traps
Text: The Experiments have been carried out to determine the release rates of various cancer stem cell chemokines/growth factors from cancer cell traps. The optimal release rates for each biomolecules are listed below.
Cancer cell trap size and dimension for human patients. All studies carried out thus far used mice cancer models. Since the cancer cells are recruited based on the chemokines gradient, localized concentrations, but not the systemic concentrations, are the determining factors. In other words, the effectiveness of the cancer cell traps are determined on the localized release rates as listed in the above table.

[5] = Release kinetics of cytokines/growth factors from MB scaffolds; conditions: gelatin MB scaffolds; for sustained release, share of total amounts per day: after the bolus; for bolus release: within the first 24 hours
Text: Chemokine/growth factor loaded PLGA scaffolds were fabricated using our protein microbubble fabrication method. Briefly, 2-20% w/v protein solution with various chemokines was overlaid with nitrogen gas and sonicated using a probe sonicator (Ultrasonix, Bothell, Wash.) at 20 kHz for 10 seconds. Protein solution can be composed of single proteins or protein mixtures in different ratios. The potential protein candidates including albumin, collagen, gelatin, immunoglobulins, extracellular matrix proteins, fibronectin, etc. Protein microbubble solutions can be added to PLGA (3-15% w/v in 1,4 dioxane) in a 1:1 ratio and gently agitated. They were then quenched in liquid nitrogen and lyophilized for 72 hours at 0.01-0.1 mBar vacuum in a Freezone 12 lyophilizer (Labconco, Kansas City, Mo., USA).
The microbubble (MB) scaffolds were analyzed using Scanning Electron Microscopy. […] Protein distribution and internal architecture of the scaffolds was determined by staining histological sections with Coomassie Blue as described earlier. […] In contrast, Coomassie Blue staining of the gelatin MB scaffold sections indicated the presence of protein around the pores and throughout the matrix of the gelatin MB scaffolds (FIG. 12C). The compressive strength of the scaffolds was tested using an MTS Insight 2 machine fitted with a 500 N load cell. Samples (5 mm width and 5 mm thickness) were compressed to 10% strain at a deflection rate of 2 mm/min. The Young's modulus was calculated from the slope of the curve similar to our earlier publication. […] Finally, the release kinetics of cytokines/growth factors from MB scaffolds was determined using Oyster 800-conjugated EPO and Oyster 800-conjugated SDF.

Molecule | recruitment of PC3 prostate cancer cells to the implant sites [1] | Release rates [4] | Duration [4] [days] | also measured
VEGF | increased the recruitment |  |  | 
c1cc(CN2CCCNCCNCCCNCC2)ccc1CN1CCCNCCNCCCNCC1 [AMD3100] |  |  |  | inflammatory cell (CD11b+) recruitment to the subcutaneous microsphere implantation site [2]: drastically reduced; accumulation of melanoma cells in lymph nodes ([3]; PLA microsphere-bearing mice, vs saline): no effect; recruitment of melanoma cells (HMB45+) to the subcutaneous microsphere implantation site ([3]; subcutaneous microsphere implants, 24 h after transplantation, vs control): drastically reduced; also recorded: inhibited
Hepatocyte growth factor (HGF/SF): hepatocyte growth factor/scatter factor released from cancer cell traps |  | 15 ng/1 milliliter of ng/1 milliliter of hydrogel/particle cancer traps or 1 cubic centimeters scaffold traps/day | >28 | 
EPO: erythropoietin, released from cancer cell traps | increased the recruitment | 1.5-2.5 international international units/1 milliliter of hydrogel/particle cancer traps or 1 cubic centimeters scaffold traps/days | >30 | 
RANTES/CCL5: chemokine released from cancer cell traps |  | 10 ng/1 milliliter of ng/1 milliliter of hydrogel/particle cancer traps or 1 cubic centimeters scaffold traps/day | >21 | 
Oyster 800-conjugated EPO: NIR dye conjugated EPO released from gelatin MB scaffolds |  |  |  | sustained release, share of total amounts per day [5]: approximately 2%; bolus release [5]: 20%
SDF-1α | increased the recruitment | 100 ng/1 milliliter of ng/1 milliliter of hydrogel/particle cancer traps or 1 cubic centimeters scaffold traps/day | >24 | 
Oyster 800-conjugated SDF: NIR dye conjugated SDF released from gelatin MB scaffolds |  |  |  | sustained release, share of total amounts per day [5]: approximately 2%; bolus release [5]: 20%
